From paper doi:10.1101/2020.10.26.352583 (bioRxiv, 2020)

Biological target: the molecule itself
Test: ITC

B1: HDP1 DNA-binding domain (HDP1-DBD), aa2991-3078 (domain or fragment, P. falciparum, UniProt A0A2I0C2C6 2991-3078, looked up)
chain: SEVQVSNINTPSSYNISARRRRRIGNNGPPSAEELNRLLNIQHLTIPEIATIYGVHRTTIARWCNIRNITSNSMNNSPGKRRKNEDNK
B1: binds.
